The results in this text go back to paper PMC9513430.

The target in the assay is Type I collagen. Put plainly: adhesion of whole bacteria to a coated plate (crystal violet staining); type I collagen (0.002-2 mg in 0.25 M acetic acid) coated on 96-well plates overnight at 4°C, blocked with BSA; overnight cultures of S. mutans (1 x 10^8-1 x 10^10 CFU) 3 h at 37°C; fixed, stained with crystal violet, OD595; percent of parental strain SN74.

On to “Cnm of Streptococcus mutans strain TW871, expressed in complemented strain SN74CNDcomp (natural protein)”, for which the percent of the collagen binding of parental strain SN74 is 60%.
